What was measured:
Assay in all cases: cell_activity
[1] = tested on: HBB5 H3 V105A I132V/H4b heterodimer H3: 30S,33H,38R,44K,68Y,70S,77T,V105A,I132V; H4b: 24V,43L,44A,70S,75E,77R,80K,87L,96R; details: [none]; yeast beta-galactosidase value
[2] = tested on: HBB5 H3 I132V/H4b heterodimer H3: 30S,33H,38R,44K,68Y,70S,77T,I132V; H4b: 24V,43L,44A,70S,75E,77R,80K,87L,96R; details: [none]; yeast beta-galactosidase value
[3] = tested on: HBB5 H3/H4a heterodimer H3: 30S,33H,38R,44K,68Y,70S,77T; H4a: 19S,32T,44A,70S,75E,77R,80K,96R; details: [none]; yeast beta-galactosidase value
[4] = tested on: HBB5 H3 V105A I132V/H4a heterodimer H3: 30S,33H,38R,44K,68Y,70S,77T,V105A,I132V; H4a: 19S,32T,44A,70S,75E,77R,80K,96R; details: [none]; yeast beta-galactosidase value
[5] = tested on: HBB5 H3 V105A/H4b heterodimer H3: 30S,33H,38R,44K,68Y,70S,77T,V105A; H4b: 24V,43L,44A,70S,75E,77R,80K,87L,96R; details: [none]; yeast beta-galactosidase value
[6] = tested on: HBB5 H3/H4b heterodimer H3: 30S,33H,38R,44K,68Y,70S,77T; H4b: 24V,43L,44A,70S,75E,77R,80K,87L,96R; details: [none]; yeast beta-galactosidase value
[7] = tested on: HBB5 H3 I132V/H4a heterodimer H3: 30S,33H,38R,44K,68Y,70S,77T,I132V; H4a: 19S,32T,44A,70S,75E,77R,80K,96R; details: [none]; yeast beta-galactosidase value
[8] = tested on: HBB5 H3 V105A/H4a heterodimer H3: 30S,33H,38R,44K,68Y,70S,77T,V105A; H4a: 19S,32T,44A,70S,75E,77R,80K,96R; details: [none]; yeast beta-galactosidase value
[9] = tested on: HprCH3.3 G19S/HprCH3.4 heterodimer chain1: G19S,Y33H,42A,43L; chain2: S32T,Y33H,Q44R,R68Y,R70S,72T,D75N,I77N; details: [none]; CHO chromosomal assay, maximum
[10] = tested on: HprCH3.3/HprCH3.4 G19S heterodimer chain1: Y33H,42A,43L; chain2: G19S,S32T,Y33H,Q44R,R68Y,R70S,72T,D75N,I77N; details: [none]; CHO chromosomal assay, maximum
[11] = tested on: HprCH3.3/HprCH3.4 heterodimer chain1: KNSHQS/QRRDI/42A43L (Y33H,42A,43L); chain2: KNTHQS/RYSNN/72T (S32T,Y33H,Q44R,R68Y,R70S,72T,D75N,I77N); details: [none]; CHO chromosomal assay, maximum
[12] = tested on: HprCH3.3 G19S/HprCH3.4 G19S heterodimer chain1: G19S,Y33H,42A,43L; chain2: G19S,S32T,Y33H,Q44R,R68Y,R70S,72T,D75N,I77N; details: [none]; no LacZ+ foci

Row | Sequence | activity [1] | activity [2] | activity [3] | activity [4] | activity [5] | activity [6] | activity [7] | activity [8] | activity (LacZ repair frequency) [9] | activity (LacZ repair frequency) [10] | activity (LacZ repair frequency) [11] | activity (LacZ repair frequency) [12]
1 | TTGGTCTCCTTAAACCTGTCTTGA (double strand) [HBB5] | 0.56 | 0.37 | 0.34 | 0.77 | 0.37 | 0.29 | 0.49 | 0.47 |  |  |  | 
2 | TCGAGATGTCATGAAAGAGATGGA (double strand) [HprCH3] |  |  |  |  |  |  |  |  | 0.0115 | 0.012 | 0.002 | < 6e-06

— patent publication US20100203031
